Test results taken from patent US20040082512A1.

Target: ZOT receptor of rabbit ileum
Test: cell-based or functional assay

Work on “FZI/0, synthetic octapeptide Gly Gly Val Leu Val Gln Pro Gly” yielded a decrease of the effect of ZOT (6xHis-ZOT) on Rt of rabbit ileum after 20 min pre-treatment with FZI/0 of 75%, a decrease of the effect of zonulinh on Rt of rabbit ileum after 20 min pre-treatment with FZI/0 of 100% and a decrease of the effect of zonulini on Rt of rabbit ileum after 20 min pre-treatment with FZI/0 of 97%.
